Assay: soluble on expression in E. coli; label from the status in PepcDB or PDB records

| Sequence | soluble on expression in E. coli |
| --- | --- |
| MGSDKIHHHHHHMTSKINKIVNGPIPDSFLFDESKRLDSLKFDGTNLEVLDQLLLPHEFKYIPVEGVSDAFAVIKSMQVRGAPLIAVVGSLGLLLEIQKASELDSESIIQKINFLISSRPTAVDLRNSLNGLKPILESQDYSDVVKLEKCRSYLLNVYTDEKLQNRILVWNAYQELLSAFPDKEKLTVMTICNTGSLATISWGTALGVIRALHSENRLKLVYVLETRPYNQGIRLTSIELLHGEVPFKLITDSMAAWAMKNHQVDCVLTGADNVARNGDTANKIGTYMLAVLCKHHNINFYPVVPFTTINKNIATGEEIKIEERPSAEMLRVNGVLIGNSECPVWNPAFDVTPAHLITKILTDFGNWPPEMLEQQIPK | not soluble |
| MSTENDVSEENNSELDDVEDAKQDDRRRSTTVIMTMNVTTVPATESEGVRRNGSVRRRLSKQNATIEEPISLLSISDSPSENSDTTVPCIEEHPEEGKEEEKPAESSDVSKLRPPGLAQNKLWSTSKSLSRESTGTEYSDRSGIDLRNFVDRTLHKSEEDRKQLLEFEKQLKELILDDSTQSKRFELPSSYHRMLLHRCAAWFGLDHNVTNKQTDIVVNKSEKTKIPDDNFTDYIRHDNYVEDRLKRQNTCGSRKELHHMESFGDHSTSQYGSQASLNHDLLMMRRAQSFDVAAVTGPSVIQPQSPHHVRGLPMRQLSLNCPQQSMVTAPMSGPQGHQWAPQRSFDCSNNSYLCTGKHPMMRKAESFGGMANGISHGCYEQSVPVVCGTPPSVMVHHHHHHAHIQQPPTSNYTGYQVFEEMSMPSSNYQEPGMCSPGGTYYEYVPQPVVQPQQYARPIRYMPQDYRRPQGVQYMYGPPPPQQYMQYQPMVHPEVEVIVDPVQTQPFPQVSHFVLPDQQQGYSSSHQAETANSFIKASIDGGYGSMNQDVENAEKVEEV | not soluble |
| MAGEEINEDYPVEIHEYLSAFENSIGAVDEMLKTMMSVSRNELLQKLDPLEQAKVDLVSAYTLNSMFWVYLATQGVNPKEHPVKQELERIRVYMNRVKEITDKKKAGKLDRGAASRFVKNALWEPKSKNASKVANKGKSKS | not soluble |
| CHQDCPQMSPQPEMDRFASEFGEQDVAVDGQAPENALENDEPKYAPQVISEQNAFLMREMMYSNIWGGGNWREGTGWNGTGWRAQKLERRDIGGKTGTTNDSKDA | not soluble |
| RQTDFTRPDGSRSTVALLQGNIDQTLKWREDQVIPTIQKYYEQVGKTTADIVILPETAIPVMRQNLPENILAKFAEQAQNNGSALAVGISQYTSDGNGYENAVINLTGYQENNQDGIPYYAKNHLVPFGEYKPLPFLTTPLYKMMDMPLSDFRKGGGKQSALLMKNQKIAFNICYEDGFGDELIAAAKDATLLANASNMAWYGKSNAMYQHLQQSQARAMELGRYMVRATNTGATAIISPKGNIIAQAQPDTETVLEGHIKGYVGETPYMKTG | not soluble |
| TLTIYPAAKPNGLAVVACPGGGYIRLAMNHEGHDMADWFNAQGITYAVLKYRMPNGHHDVPLSDAHQAIRLMREHANEWHIQKVGIMGASAGGHLASTAATHYTAGTRPDFQILFYPVISMDLSNCHKGSRDNLLGKSPSEELVRLYSNELQVTGDTPPAFIMHSSDDGAVPVSNSVSYYLALVKNKVPASLHTYPIGGHGWGFRDSFTYKRQWTGELEKWLREIL | not soluble |
| GLPRHSAVMERLRRRIELCRRHHSTCEARYEAVSPERLELERQHTFALHQRCIQAKAKRAGKH | soluble |
| MSLNRPLRIGIVVGELSGDTLGEGFIKAIRARYPDAEFVGIGGPKMNALGCQSLFDMEELAVMGLVEVLGRLPRLLKVKAELVKYFTANPPDVFVGIDAPDFNLRLELSLKQAGIKTVHYVSPSVWAWRQNRIHGIAAATHLVLAFLPFEKAFYDKFNVPCEFIGHTLADSIPLASDKLAARQLLGLDEQRRWLAVLPGSRGSEMKMLAEPFIATCQKLQARYPDLGFVVALVNAKRRAQFEQAWQQVAPELNFVLVDDTARNVITAADAVMLASGTVALECMLLKRPMVVGYRVNAFTAFLAKRLLKTPYVSLPNILAGEELVKELLQDHCTVDNLYHEVSRLLESDNQALMDKFTEMHQWIRKDADQQAAQAVLHLIQKEGHHHHHH | not soluble |
| MAHHHHHHMQSSALRPSSLLRAYHYVHPKTGRPIRQYRKYGDPRFINNEVALIKGLFALITTDFGMVTQSQLENARLAILRRMPRGSFALTMHTDYEEFPVVQKSPESRMGAGKSNIHHFAYKFTTGVPLFEITALSSRRLNQAEAEGIFLAGRSFIPLQTAVVPRGRVDEYHVFK | soluble |

From the DeepSol protein solubility set
